Assays:
[1] = biological target: FcγR3A 176F (UniProt P08637); assay: SPR, steady state fit
[2] = biological target: FcγR3A 176V (UniProt P08637); assay: SPR, steady state fit
[3] = biological target: FcγR2B/C (UniProt P31994); assay: SPR, steady state fit
[4] = biological target: FcγR2a H167 (UniProt P12318); assay: SPR, steady state fit
[5] = biological target: neonatal Fc receptor (FcRn) (Human) (UniProt P55899); assay: SPR at pH 6.0, kinetic fit
[6] = biological target: FcγR2a R167 (UniProt P12318); assay: SPR, steady state fit, second of two runs
[7] = biological target: FcγR2a R167 (UniProt P12318); assay: SPR, kinetic fit, first of two runs
[8] = biological target: Fc-gamma Receptor 1 (FcγR1) (UniProt P12314)
[9] = biological target: FcγR2a R167 (UniProt P12318); assay: SPR, steady state fit, first of two runs
[10] = biological target: neonatal Fc receptor (FcRn) (Human) (UniProt P55899); assay: SPR at pH 6.0, experimental Rmax / theoretical Rmax
[11] = biological target: neonatal Fc receptor (FcRn) (Human) (UniProt P55899); assay: SPR at pH 6.0, steady state fit
[12] = biological target: Fc-gamma Receptor 1 (FcγR1) (UniProt P12314); assay: SPR, experimental Rmax / theoretical Rmax
[13] = biological target: FcγR3A 176F (UniProt P08637); assay: SPR, experimental Rmax / theoretical Rmax
[14] = biological target: FcγR2B/C (UniProt P31994); assay: SPR, experimental Rmax / theoretical Rmax
[15] = biological target: FcγR2a R167 (UniProt P12318); assay: SPR, kinetic fit, second of two runs
[16] = biological target: FcγR3A 176F (UniProt P08637); assay: SPR, kinetic fit
[17] = biological target: FcγR3A 176V (UniProt P08637); assay: SPR, kinetic fit
[18] = biological target: FcγR2B/C (UniProt P31994); assay: SPR, kinetic fit
[19] = biological target: FcγR2a H167 (UniProt P12318); assay: SPR, kinetic fit
[20] = biological target: biotinylated SARS-CoV-2 spike RBD (Ancestral) (SARS-CoV-2) (UniProt P0DTC2); assay: AlphaLISA, inhibition of ACE2-muFc / biotinylated spike complex

FcγR2B/C, sequence (P31994 46-217): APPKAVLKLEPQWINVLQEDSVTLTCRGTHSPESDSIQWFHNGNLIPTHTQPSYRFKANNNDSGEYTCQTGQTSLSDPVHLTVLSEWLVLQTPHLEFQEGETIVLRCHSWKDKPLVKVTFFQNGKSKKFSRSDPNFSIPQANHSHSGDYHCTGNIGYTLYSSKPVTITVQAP
FcγR3A 176F, sequence (P08637 17-208): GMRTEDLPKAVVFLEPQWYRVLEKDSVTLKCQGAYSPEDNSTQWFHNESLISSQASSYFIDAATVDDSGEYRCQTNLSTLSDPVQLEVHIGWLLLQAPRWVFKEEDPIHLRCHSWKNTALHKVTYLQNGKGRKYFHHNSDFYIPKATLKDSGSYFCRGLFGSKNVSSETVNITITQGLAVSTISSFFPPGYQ
neonatal Fc receptor (FcRn) (Human), sequence (P55899 24-297): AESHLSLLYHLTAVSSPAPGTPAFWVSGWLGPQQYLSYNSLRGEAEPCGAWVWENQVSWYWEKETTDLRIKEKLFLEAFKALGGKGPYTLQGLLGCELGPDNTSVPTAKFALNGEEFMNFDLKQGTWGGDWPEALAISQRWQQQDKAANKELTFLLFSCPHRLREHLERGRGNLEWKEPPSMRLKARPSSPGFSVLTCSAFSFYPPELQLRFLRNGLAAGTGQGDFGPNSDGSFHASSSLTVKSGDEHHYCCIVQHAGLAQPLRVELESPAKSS
FcγR2a R167, sequence (P12318 36-218 H167R): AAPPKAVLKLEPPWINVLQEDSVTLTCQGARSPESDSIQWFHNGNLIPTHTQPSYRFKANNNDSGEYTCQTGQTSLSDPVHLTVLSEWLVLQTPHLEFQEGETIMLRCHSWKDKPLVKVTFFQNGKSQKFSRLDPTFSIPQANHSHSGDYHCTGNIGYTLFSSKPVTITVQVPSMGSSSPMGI
Fc-gamma Receptor 1 (FcγR1), sequence (P12314 16-288): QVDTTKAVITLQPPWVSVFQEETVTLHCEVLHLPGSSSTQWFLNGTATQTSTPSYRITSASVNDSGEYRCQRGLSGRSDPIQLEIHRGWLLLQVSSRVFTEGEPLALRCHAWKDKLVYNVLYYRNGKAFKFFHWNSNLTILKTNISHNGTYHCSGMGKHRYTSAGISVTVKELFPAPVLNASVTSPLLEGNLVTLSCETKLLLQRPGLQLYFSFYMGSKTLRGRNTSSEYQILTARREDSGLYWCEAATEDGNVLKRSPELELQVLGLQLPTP
FcγR3A 176V, sequence (P08637 17-208 F176V): as the sequence (P08637 17-208) above, with F160V counted along it
FcγR2a H167, sequence (P12318 36-218): as the sequence (P12318 36-218 H167R) above, with R132H counted along it

“anti-RBD neutralizing monoclonal antibody (human IgG1) from Acro Biosystems (SAD-S35)” was tested, and the Kd [1] was 796 nM, the Kd [2] was 210 nM and the Kd [3] was 1590 nM. The Kd [4] was 537 nM, the Kd [5] was 81.1 nM and the Kd [6] was 640 nM. For the same substance, the Kd [7] was 596 nM, the Kd [8] was 0.46 nM and the Kd [9] was 636 nM. The % Activity [10] was 116%, the Kd [11] was 86.5 nM and the % Activity [12] was 120%. For the same substance, the % Activity [13] was 92%, the % Activity [14] was 93% and the Kd [15] was 650 nM. It also gave a Kd [16] of 1110 nM, a Kd [17] of 161 nM and a Kd [18] of 1360 nM. For the same substance, the Kd [19] was 462 nM and the IC50 [20] was 6.8 nM.

— patent US20230002478A1
